T1: BoNT/B translocation domain (HN), yeast displayed (Clostridium botulinum, UniProt P10844 442-857)
T1 sequence: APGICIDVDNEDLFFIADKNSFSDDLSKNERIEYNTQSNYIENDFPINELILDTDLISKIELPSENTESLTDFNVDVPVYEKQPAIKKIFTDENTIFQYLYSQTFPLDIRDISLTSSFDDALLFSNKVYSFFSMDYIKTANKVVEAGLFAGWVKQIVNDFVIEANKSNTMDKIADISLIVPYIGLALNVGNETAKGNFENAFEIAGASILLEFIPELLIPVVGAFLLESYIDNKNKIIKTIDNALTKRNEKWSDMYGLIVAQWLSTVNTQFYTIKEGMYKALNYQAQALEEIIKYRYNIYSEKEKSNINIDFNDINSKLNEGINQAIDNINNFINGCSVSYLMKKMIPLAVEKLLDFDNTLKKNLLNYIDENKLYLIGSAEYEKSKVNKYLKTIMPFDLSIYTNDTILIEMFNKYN

T2: BoNT/B binding domain (HC), yeast displayed (Clostridium botulinum, UniProt P10844 858-1291)
T2 sequence: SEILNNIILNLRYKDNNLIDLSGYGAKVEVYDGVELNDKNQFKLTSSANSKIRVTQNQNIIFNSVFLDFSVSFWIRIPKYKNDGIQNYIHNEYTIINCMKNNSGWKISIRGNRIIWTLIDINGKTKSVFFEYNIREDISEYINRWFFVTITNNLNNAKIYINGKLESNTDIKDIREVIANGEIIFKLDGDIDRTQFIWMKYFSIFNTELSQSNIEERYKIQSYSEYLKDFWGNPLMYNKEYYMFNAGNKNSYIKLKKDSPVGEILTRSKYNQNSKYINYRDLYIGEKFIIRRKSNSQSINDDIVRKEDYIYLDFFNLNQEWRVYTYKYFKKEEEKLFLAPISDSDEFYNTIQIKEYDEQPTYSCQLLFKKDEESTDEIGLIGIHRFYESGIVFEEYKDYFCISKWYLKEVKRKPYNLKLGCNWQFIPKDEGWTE

T3: BoNT/B light chain (LC), yeast displayed (Clostridium botulinum, UniProt P10844 1-441)
T3 sequence: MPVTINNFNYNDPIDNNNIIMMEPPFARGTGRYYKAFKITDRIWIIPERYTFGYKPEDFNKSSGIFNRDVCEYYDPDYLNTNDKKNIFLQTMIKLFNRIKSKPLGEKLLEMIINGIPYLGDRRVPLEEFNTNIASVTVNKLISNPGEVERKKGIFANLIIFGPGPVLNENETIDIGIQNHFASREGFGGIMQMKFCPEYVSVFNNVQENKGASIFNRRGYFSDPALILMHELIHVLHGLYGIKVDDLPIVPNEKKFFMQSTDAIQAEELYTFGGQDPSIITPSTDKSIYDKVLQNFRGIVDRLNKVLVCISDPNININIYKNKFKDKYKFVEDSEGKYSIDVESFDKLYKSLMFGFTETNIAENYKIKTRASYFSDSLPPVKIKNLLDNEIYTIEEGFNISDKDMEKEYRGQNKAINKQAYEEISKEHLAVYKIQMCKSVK

B1: 1B18 IgG (antibody, V domains shown)
VH: EVQLVQSGGGLVQPGGSRRLSCAASGFYFNAYWMTWVRQAPGKGLEWVANINLDGTEIYYLDSVKGRFTVSRDNVKNSVFLQMSSLRVEDTAVYFCARLEWGGRNGWVSPWGQGTLVTVSS
VL: DVVMTQSPSSVSASVGDRVTITCRASQSISSYLNWYQQRPGKAPKLLIFAASSLQSAVPSRFSGSGSGTDFTLTISSLQPEDFATYYCQQSYSTPPTFGQGTKVEIKR
B2: 2B30 scFv (scFv)
scFv: EVQLVESGGGVVQPGRSLRLSCAASGFTFRRNAIHWVRQAPGKGLEWVAVISYDGVNKYYAASVKGRFAISRDNAKNTLFLQMNSLRPEDSAIYYCARDVSEYGDYVGHFDYWGQGTLVTVSSGGGGSGGGGSGGGGSSYELMQLPSASGTPGQRVSISCSGSSSNIGSNPVNWYQQLPGTAPKLLIYSNNHRPSGVPDRFSGSKSGTSASLAISGLQSEDEADYYCAAWDGSLNGHVVFGGGTKLTVL

Assays:
[1] = target: T1, BoNT/B translocation domain (HN), yeast …; test: IgG/Fab on yeast-displayed toxin domain, flow cytometry
[2] = target: T2, BoNT/B binding domain (HC), yeast …; test: flow cytometry, mAb staining of yeast-displayed BoNT/B domains
[3] = target: T3, BoNT/B light chain (LC), yeast displayed; test: as above
[4] = target: T2, BoNT/B binding domain (HC), yeast …; test: soluble scFv or IgG on yeast-displayed BoNT/B domains

Binder	binding result [1]	binding result [2]	binding result [3]	binding result [4]
B1	binds	no binding	no binding	–
B2	–	–	–	binds
